{"source": "patent US20070166787A1", "about": "(YEDA RESEARCH AND DEVELOPMENT, published 2007)", "binders": {"B1": {"name": "death domain (DD) of human MORT-1, residues 92-208, Gal4 hybrid construct (other, not shown: large carriers)", "chain": "PGEEDLCAAFNVICDNVGKDWRRLARQLKVSDTKIDSIEDRYPRNLTERVRESLRIWKNTEKENATVAHLVGALRSCQMNLVADLVQEVQQARDLQNRSGAMSPMSWNSDASTSEAS", "notes": "Yeast two-hybrid fusion; also called MORT-1 DD; HF1"}, "B2": {"name": "death domain (DD) of human p55 TNF-R, residues 326-426, Gal4 hybrid construct (receptor, not shown: large carriers)", "chain": "DPATLYAVVENVPPLRWKEFVRRLGLSDHEIDRLELQNGRCLREAQYSMLATWRRRTPRREATLELLGRVLRDMDLLGCLEDIEEALCGPAALPPAPSLLR", "notes": "Yeast two-hybrid fusion; also called p55-R; p55 TNF-R DD"}, "B3": {"name": "death domain (DD) of human TRADD, residues 195-312, Gal4 hybrid construct (other, not shown: large carriers)", "chain": "PPPPAQTFLFQGQPVVNRPLSLKDQQTFARSVGLKWRKVGRSLQRGCRALRDPALDSLAYEYEREGLYEQAFQLLRRFVQAEGRRATLQRLVEALEENELTSLAEDLLGLTDPNGGLA", "notes": "Yeast two-hybrid fusion; also called TRADD DD"}, "B4": {"name": "DD of the rat low-affinity NGF receptor (receptor, UniProt P07174 340-425, looked up)", "chain": "LPLTKREEVEKLLNGDTWRHLAGELGYQPEHIDSFTHEACPVRALLASWGAQDSATLDALLAALRRIQRADIVESLCSESTATSPV", "notes": "domain: DD; Control in the two-hybrid specificity test; construct not described; also called rat NGF-R DD"}, "B5": {"name": "human p55 TNF-R DD (residues 326-426) point mutant L351N, Gal4 hybrid construct (receptor, not shown: large carriers)", "chain": "B2 chain with L26N", "notes": "Legend prints 'L35IN'; also called p55-R L35IN; p55 TNF-R (L351N)"}}, "key": {"[1]": {"target": "the molecule itself", "assay": "yeast two-hybrid, self-association, beta-galactosidase filter assay, SFY526", "from_the_text": "(§1) Two-Hybrid β-Galactosidase Expression Tests. cDNA inserts were cloned by PCR, either from the full-length cDNAs cloned previously in our laboratory, or from purchased cDNA libraries. Residue numbering in the proteins encoded by the cDNA inserts are as in the Swiss-Prot Data Bank. Point mutants were produced by oligonucleotide-directed mutagenesis (Kunkel, 1994). β-galactosidase expression in yeasts (SFY526 reporter strain (Bartel et al, 1993)) transformed with these cDNAs in the pGBT-9 and pGAD-GH vectors (DNA binding domain (DBD) and activation domain (AD) constructs, respectively) was assessed by a filter assay (Boldin et al, 1995). When expressed in the pGAD-GH vector, RIP and its DD had some cytotoxic effect on the yeasts, manifested in a low yield of yeast colonies.\n(§2) The interactions of the DDs of human p55 TNF-R, FAS-R, TRADD, MORT-1 and RIP were evaluated first by a yeast two-hybrid test. The cDNAs encoding these domains were expressed as fusion proteins with the Gal4 DNA binding and activation domains (DBD and AD constructs) in the yeast SFY526 reporter strain, and the binding of these fusion proteins to each other was assessed by determining β-galactosidase expression by the yeasts. The results of these tests are summarized in FIG. 1 and illustrated diagrammatically in FIG. 3."}, "SNF 1": {"target": "T1, SNF 1 (UniProt P06782 1-633, limits assumed)", "T1 sequence (looked up)": "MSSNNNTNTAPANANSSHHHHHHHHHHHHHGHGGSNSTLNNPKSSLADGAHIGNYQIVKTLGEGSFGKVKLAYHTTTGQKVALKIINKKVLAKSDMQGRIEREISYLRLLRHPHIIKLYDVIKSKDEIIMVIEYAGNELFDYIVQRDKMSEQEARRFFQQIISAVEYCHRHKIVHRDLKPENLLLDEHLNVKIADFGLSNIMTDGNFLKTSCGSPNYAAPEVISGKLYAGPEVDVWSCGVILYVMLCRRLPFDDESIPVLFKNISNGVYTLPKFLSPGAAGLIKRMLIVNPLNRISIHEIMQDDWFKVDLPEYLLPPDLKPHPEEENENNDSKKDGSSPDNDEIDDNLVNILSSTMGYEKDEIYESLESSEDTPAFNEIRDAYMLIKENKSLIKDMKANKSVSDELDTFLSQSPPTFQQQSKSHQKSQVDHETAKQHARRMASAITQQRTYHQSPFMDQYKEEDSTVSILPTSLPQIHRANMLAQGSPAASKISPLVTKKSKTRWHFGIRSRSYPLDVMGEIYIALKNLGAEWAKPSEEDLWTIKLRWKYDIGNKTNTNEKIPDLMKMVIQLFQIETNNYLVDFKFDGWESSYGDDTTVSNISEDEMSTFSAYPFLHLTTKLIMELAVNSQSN", "assay": "yeast two-hybrid specificity test (not shown)"}, "[2]": {"target": "T2, intracellular domain of the human p75 TNF receptor (human, UniProt P20333 288-461, limits assumed)", "T2 construct": "domain: intracellular domain; Irrelevant control in the two-hybrid specificity test; construct not described; also called p75 IC", "T2 sequence (looked up)": "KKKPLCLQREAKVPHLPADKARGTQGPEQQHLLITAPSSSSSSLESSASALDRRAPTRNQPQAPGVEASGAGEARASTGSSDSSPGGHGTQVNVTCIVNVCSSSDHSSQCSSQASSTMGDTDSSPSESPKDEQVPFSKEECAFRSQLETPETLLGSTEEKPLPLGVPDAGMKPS", "assay": "yeast two-hybrid specificity test (not shown)"}, "[3]": {"target": "B3", "assay": "yeast two-hybrid, beta-galactosidase filter assay, SFY526", "from_the_text": "as §1, §2"}, "[4]": {"target": "B1", "assay": "yeast two-hybrid, beta-galactosidase filter assay, SFY526", "from_the_text": "as §1, §2"}, "[5]": {"target": "B3", "assay": "yeast two-hybrid (summing up of Example 2)", "from_the_text": "as §1, §2"}, "[6]": {"target": "the molecule itself", "assay": "yeast two-hybrid, beta-galactosidase filter assay, SFY526", "from_the_text": "as §1, §2"}, "[7]": {"target": "B2", "assay": "yeast two-hybrid specificity test (not shown)"}, "[8]": {"target": "B1", "assay": "yeast two-hybrid specificity test (not shown)"}, "[9]": {"target": "B3", "assay": "yeast two-hybrid specificity test (not shown)"}, "[10]": {"target": "the molecule itself", "assay": "yeast two-hybrid, beta-galactosidase filter assay", "from_the_text": "(§3) FIG. 2 depicts interactions of the ‘death domains’ of the P55-R, Fas/APOI, MORT-1, TRADD and. RIP in a yeast two-hybrid test, and the effect of lbr^cg-like mutations in these proteins on their interactions. Assessment of the interaction of Gal4 hybrid constructs encompassing the following human proteins, truncated upstream to their DD motifs: p55-R (residues 326-426), FAS-R (residues 210-319), MORT-1 (residues 92-208), TRADD (residues 195-312) and RIP (residues 261-372), as well as of the following points mutants of these proteins: p55-R L35IN, FAS-R V238N, MORT-1 V121N, and RIP F308N, whose mutation sites within the DDs correspond to that found in the FAS-R of the lpr^cg mice. Each cDNA insert was introduced both into the Gal4 DNA binding domain (DBD) and the Gal4 activation domain (AD) constructs (pGBT9 abd pGAD-GH), and the binding of the inserts in both constructs to all other inserts within transfected SFY526 yeasts was assessed by a β-galactosidase expression filter assay. The results are presented in terms of the time required for development of strong color. ND—not done.\nas §1"}, "[11]": {"target": "B1", "assay": "yeast two-hybrid, beta-galactosidase filter assay", "from_the_text": "as §3, §1"}, "[12]": {"target": "B3", "assay": "yeast two-hybrid, beta-galactosidase filter assay", "from_the_text": "as §3, §1"}}, "note": "Numbering of substitutions follows the chain as printed. Names and notes keep the numbering of the source.", "data": [{"binder": "B1", "values": [{"measurement": "binding result", "setting": "[1]", "value": "no binding"}, {"measurement": "binding result", "setting": "SNF 1", "value": "no binding"}, {"measurement": "binding result", "setting": "[2]", "value": "no binding"}, {"measurement": "binding result", "setting": "[3]", "value": "binds"}]}, {"binder": "B2", "values": [{"measurement": "binding result", "setting": "SNF 1", "value": "no binding"}, {"measurement": "binding result", "setting": "[2]", "value": "no binding"}, {"measurement": "binding result", "setting": "[4]", "value": "no binding"}, {"measurement": "binding result", "setting": "[5]", "value": "binds"}]}, {"binder": "B3", "values": [{"measurement": "binding result", "setting": "SNF 1", "value": "no binding"}, {"measurement": "binding result", "setting": "[2]", "value": "no binding"}, {"measurement": "binding result", "setting": "[6]", "value": "binds"}]}, {"binder": "B4", "values": [{"measurement": "binding result", "setting": "[7]", "value": "no binding"}, {"measurement": "binding result", "setting": "[8]", "value": "no binding"}, {"measurement": "binding result", "setting": "[9]", "value": "no binding"}]}, {"binder": "B5", "values": [{"measurement": "binding result", "setting": "[10]", "value": "no binding"}, {"measurement": "binding result", "setting": "[11]", "value": "no binding"}, {"measurement": "binding result", "setting": "[12]", "value": "no binding"}]}]}
